Experimental data reported in PMC3594540 (Nature structural & molecular biology, 2013).

Assays:
[1] = target: T1, PLCβ3 L876A EEE (human, UniProt Q01970); experiment: cell-based or functional assay
T1 chain: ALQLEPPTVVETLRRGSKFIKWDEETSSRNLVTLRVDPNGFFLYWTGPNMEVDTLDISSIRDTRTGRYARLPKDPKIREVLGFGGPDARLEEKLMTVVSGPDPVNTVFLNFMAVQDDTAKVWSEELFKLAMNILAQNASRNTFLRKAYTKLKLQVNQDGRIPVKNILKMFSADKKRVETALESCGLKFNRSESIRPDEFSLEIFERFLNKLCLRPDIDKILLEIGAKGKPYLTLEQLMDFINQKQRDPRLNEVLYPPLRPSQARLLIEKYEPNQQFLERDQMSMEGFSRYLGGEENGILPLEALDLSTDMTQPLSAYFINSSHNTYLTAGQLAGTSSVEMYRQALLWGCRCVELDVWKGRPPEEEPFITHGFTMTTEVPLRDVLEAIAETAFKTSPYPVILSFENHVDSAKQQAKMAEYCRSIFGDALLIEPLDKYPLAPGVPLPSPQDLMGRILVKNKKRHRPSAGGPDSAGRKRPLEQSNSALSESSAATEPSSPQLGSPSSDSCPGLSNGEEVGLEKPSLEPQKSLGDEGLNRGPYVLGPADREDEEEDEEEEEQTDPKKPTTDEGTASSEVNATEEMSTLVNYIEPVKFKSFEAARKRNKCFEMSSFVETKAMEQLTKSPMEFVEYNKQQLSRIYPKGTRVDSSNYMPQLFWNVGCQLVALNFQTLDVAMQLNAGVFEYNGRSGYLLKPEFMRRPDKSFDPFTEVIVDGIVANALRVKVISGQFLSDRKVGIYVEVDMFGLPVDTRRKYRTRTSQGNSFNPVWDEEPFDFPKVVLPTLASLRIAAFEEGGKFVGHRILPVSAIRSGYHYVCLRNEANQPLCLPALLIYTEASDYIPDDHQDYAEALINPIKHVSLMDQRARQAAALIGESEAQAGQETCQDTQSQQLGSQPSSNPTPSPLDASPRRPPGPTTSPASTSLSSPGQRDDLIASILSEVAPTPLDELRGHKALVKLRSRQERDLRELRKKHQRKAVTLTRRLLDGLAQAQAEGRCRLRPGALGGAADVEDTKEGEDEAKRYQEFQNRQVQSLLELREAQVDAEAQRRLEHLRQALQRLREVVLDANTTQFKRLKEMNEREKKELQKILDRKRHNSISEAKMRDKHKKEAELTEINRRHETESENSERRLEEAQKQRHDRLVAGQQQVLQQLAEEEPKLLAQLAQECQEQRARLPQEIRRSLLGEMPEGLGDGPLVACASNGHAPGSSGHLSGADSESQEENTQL

[2] = target: T2, PLCβ3 T652E (human, UniProt Q01970); experiment: cell-based or functional assay
T2 chain: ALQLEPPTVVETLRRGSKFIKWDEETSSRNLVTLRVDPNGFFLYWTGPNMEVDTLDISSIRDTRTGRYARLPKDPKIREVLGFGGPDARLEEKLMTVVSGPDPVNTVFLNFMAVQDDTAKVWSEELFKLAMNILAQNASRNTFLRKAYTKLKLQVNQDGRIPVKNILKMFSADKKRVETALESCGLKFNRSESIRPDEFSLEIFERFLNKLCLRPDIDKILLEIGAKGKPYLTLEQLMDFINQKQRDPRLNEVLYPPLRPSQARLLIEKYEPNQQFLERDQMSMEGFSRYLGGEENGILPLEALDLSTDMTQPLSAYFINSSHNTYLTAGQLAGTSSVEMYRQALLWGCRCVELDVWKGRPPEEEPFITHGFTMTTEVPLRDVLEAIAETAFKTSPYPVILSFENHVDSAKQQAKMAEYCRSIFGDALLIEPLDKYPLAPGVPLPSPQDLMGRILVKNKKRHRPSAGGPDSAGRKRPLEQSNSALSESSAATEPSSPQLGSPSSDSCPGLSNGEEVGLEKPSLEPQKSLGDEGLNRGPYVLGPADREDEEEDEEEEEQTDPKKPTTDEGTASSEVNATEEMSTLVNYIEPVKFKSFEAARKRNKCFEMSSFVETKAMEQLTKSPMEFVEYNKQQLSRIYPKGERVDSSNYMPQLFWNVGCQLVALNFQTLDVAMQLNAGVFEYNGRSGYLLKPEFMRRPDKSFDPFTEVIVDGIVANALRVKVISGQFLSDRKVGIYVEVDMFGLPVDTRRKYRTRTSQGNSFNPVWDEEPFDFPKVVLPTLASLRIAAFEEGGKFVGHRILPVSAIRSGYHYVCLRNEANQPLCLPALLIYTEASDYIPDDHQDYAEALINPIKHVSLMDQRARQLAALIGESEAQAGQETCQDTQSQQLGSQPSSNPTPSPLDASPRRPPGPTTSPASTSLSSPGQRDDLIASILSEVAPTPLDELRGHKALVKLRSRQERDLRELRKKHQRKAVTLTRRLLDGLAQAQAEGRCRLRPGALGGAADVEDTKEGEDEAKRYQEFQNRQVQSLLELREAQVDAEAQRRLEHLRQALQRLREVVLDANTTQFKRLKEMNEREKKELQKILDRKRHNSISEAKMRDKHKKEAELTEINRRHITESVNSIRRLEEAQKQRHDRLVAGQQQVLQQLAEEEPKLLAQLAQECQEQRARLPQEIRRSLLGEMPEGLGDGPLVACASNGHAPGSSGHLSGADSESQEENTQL

B1: murine Gαq (residues 7–359), biotinylated for bead binding (natural protein)
chain: MACCLSEEAKEARRINDEIERQLRRDKRDARRELKLLLLGTGESGKSTFIKQMRIIHGSGYSDEDKRGFTKLVYQNIFTAMQAMIRAMDTLKIPYKYEHNKAHAQLVREVDVEKVSAFENPYVDAIKSLWNDPGIQECYDRRREYQLSDSTKYYLNDLDRVADPSYLPTQQDVLRVRVPTTGIIEYPFDLQSVIFRMVDVGGQRSERRKWIHCFENVTSIMFLVALSEYDQVLVESDNENRMEESKALFRTIITYPWFQNSSVILFLNKKDLLEEKIMYSHLVDYFPEYDGPQRDAQAAREFILKMFVDLNPDSDKIIYSHFTCATDTENIRFVFAAVKDTILQLNLKEYNLV
EC50 of Gαq-stimulated PIP2 hydrolysis ([3H]-IP3 release from liposomes) [1]: 0.032 µM | Max specific activity of Gαq-stimulated PIP2 hydrolysis (liposomes) [1]: 3900 nmol IP3/min/nmol PLCβ3 | EC50 of Gαq-stimulated PIP2 hydrolysis ([3H]-IP3 release from liposomes) [2]: 1.15 µM
